B1: S. cerevisiae Abp1 (full length; SH3 domain 535-592 mutated) / Hua2 (parent)
chain 1: MALEPIDYTTHSREIDAEYLKIVRGSDPDTTWLIISPNAKKEYEPESTGSSFHDFLQLFDETKVQYGLARVSPPGSDVEKIIIIGWCPDSAPLKTRASFAANFAAVANNLFKGYHVQVTARDEDDLDENELLMKISNAAGARYSIQTSSKQQGKASTPPVKKSFTPSKSPAPVSKKEPVKTPSPAPAAKISSRVNDNNDDDDWNEPELKERDFDQAPLKPNQSSYKPIGKIDLQKVIAEEKAKEDPRLVQKPTAAGSKIDPSSDIANLKNESKLKRDSEFNSFLGTTKPPSMTESSLKNDDDKVIKGFRNEKSPAQLWAERKAKQNSGNAETKAEAPKPEVPEDEPEGEPDVKDLKSKFEGLAASEKEEEEMENKFAPPPKKSEPTIISPKPFSKPQEPVKAEEAEQPKTDYKKIGNPLPGMHIEADNEEEPEENDDDWDDDEDEAAQPPLPSRNVASGAPVQKEEPEQEEIAPSLPSRNSIPAPKQEEAPEQAPEEEIEEEAEEAAPQLPSRSSAAPPPPPRRATPEKKPKENPWATAEYDYDAAEDNELTFVENDKIINIEFVDDDWWLGELEKDGSKGLFPSNYVSLGN
chain 2: MQQTKFGKMYLDHDSVVEYSEDEIVEADRITLGYKKRLSMIENQMRHLLEDFSLDVQQIEPILADLQKYYDAFLQLLQKRNKSLQCKRSTHQPVPSPMNSQTSTNAKVNLSGKLMKFQLNSVQKFDEENILRILQNKIEFEHYFQIDKGKKQKVLLLAVYQCLNGPTRLHKVLNIEGIIHNNSIRTILGKQVSSSKWTVFLYDVKLVLLAHRQDVPNLETSKMIVRYGDLFPCALYFKDHTAY

Variants of: B1
Test: DHFR protein-fragment complementation in yeast (Abp1-DHFR F[1,2] x partner-DHFR F[3]), deep mutational scanning, second methotrexate selection vs reference
Conditions: with Hua2; S. cerevisiae, DHFR-PCA selection in liquid with methotrexate at 30 C, two 72 h selections (the score uses the second); reference = the pre-selection culture; value at the no-binding floor (a bound); scale: DMS score: mean over two replicates of log2(f_test/f_ref + 0.5)/ln 2, minus the synonymous-codon median

| Variant | screen value |
| --- | --- |
| chain 1 MALEPIDYTTHSREIDAEYLKIVRGSDPDTTWLIISPNAKKEYEPESTGSSFHDFLQLFDETKVQYGLARVSPPGSDVEKIIIIGWCPDSAPLKTRASFAANFAAVANNLFKGYHVQVTARDEDDLDENELLMKISNAAGARYSIQTSSKQQGKASTPPVKKSFTPSKSPAPVSKKEPVKTPSPAPAAKISSRVNDNNDDDDWNEPELKERDFDQAPLKPNQSSYKPIGKIDLQKVIAEEKAKEDPRLVQKPTAAGSKIDPSSDIANLKNESKLKRDSEFNSFLGTTKPPSMTESSLKNDDDKVIKGFRNEKSPAQLWAERKAKQNSGNAETKAEAPKPEVPEDEPEGEPDVKDLKSKFEGLAASEKEEEEMENKFAPPPKKSEPTIISPKPFSKPQEPVKAEEAEQPKTDYKKIGNPLPGMHIEADNEEEPEENDDDWDDDEDEAAQPPLPSRNVASGAPVQKEEPEQEEIAPSLPSRNSIPAPKQEEAPEQAPEEEIEEEAEEAAPQLPSRSSAAPPPPPRRATPEKKPKENPWATAEYDYDAAEDNELTFVENDKIINIEFVDDDWWLGELEKDGSKGLFPQNYVSLGN [chain 1 S585Q] | < -3.06 |
| chain 1 MALEPIDYTTHSREIDAEYLKIVRGSDPDTTWLIISPNAKKEYEPESTGSSFHDFLQLFDETKVQYGLARVSPPGSDVEKIIIIGWCPDSAPLKTRASFAANFAAVANNLFKGYHVQVTARDEDDLDENELLMKISNAAGARYSIQTSSKQQGKASTPPVKKSFTPSKSPAPVSKKEPVKTPSPAPAAKISSRVNDNNDDDDWNEPELKERDFDQAPLKPNQSSYKPIGKIDLQKVIAEEKAKEDPRLVQKPTAAGSKIDPSSDIANLKNESKLKRDSEFNSFLGTTKPPSMTESSLKNDDDKVIKGFRNEKSPAQLWAERKAKQNSGNAETKAEAPKPEVPEDEPEGEPDVKDLKSKFEGLAASEKEEEEMENKFAPPPKKSEPTIISPKPFSKPQEPVKAEEAEQPKTDYKKIGNPLPGMHIEADNEEEPEENDDDWDDDEDEAAQPPLPSRNVASGAPVQKEEPEQEEIAPSLPSRNSIPAPKQEEAPEQAPEEEIEEEAEEAAPQLPSRSSAAPPPPPRRATPEKKPKENPWATAEYDYDAAEDNELTFVENDKIINIEFVDDDWWLGELEKDGSKGLFPSRYVSLGN [chain 1 N586R] | -2.99 |
| chain 1 MALEPIDYTTHSREIDAEYLKIVRGSDPDTTWLIISPNAKKEYEPESTGSSFHDFLQLFDETKVQYGLARVSPPGSDVEKIIIIGWCPDSAPLKTRASFAANFAAVANNLFKGYHVQVTARDEDDLDENELLMKISNAAGARYSIQTSSKQQGKASTPPVKKSFTPSKSPAPVSKKEPVKTPSPAPAAKISSRVNDNNDDDDWNEPELKERDFDQAPLKPNQSSYKPIGKIDLQKVIAEEKAKEDPRLVQKPTAAGSKIDPSSDIANLKNESKLKRDSEFNSFLGTTKPPSMTESSLKNDDDKVIKGFRNEKSPAQLWAERKAKQNSGNAETKAEAPKPEVPEDEPEGEPDVKDLKSKFEGLAASEKEEEEMENKFAPPPKKSEPTIISPKPFSKPQEPVKAEEAEQPKTDYKKIGNPLPGMHIEADNEEEPEENDDDWDDDEDEAAQPPLPSRNVASGAPVQKEEPEQEEIAPSLPSRNSIPAPKQEEAPEQAPEEEIEEEAEEAAPQLPSRSSAAPPPPPRRATPEKKPKENPWATAEYDYDAARDNELTFVENDKIINIEFVDDDWWLGELEKDGSKGLFPSNYVSLGN [chain 1 E547R] | -3.04 |

Second part, the variant after the results:

| screen value | Variant |
| --- | --- |
| -2.99 | chain 1 MALEPIDYTTHSREIDAEYLKIVRGSDPDTTWLIISPNAKKEYEPESTGSSFHDFLQLFDETKVQYGLARVSPPGSDVEKIIIIGWCPDSAPLKTRASFAANFAAVANNLFKGYHVQVTARDEDDLDENELLMKISNAAGARYSIQTSSKQQGKASTPPVKKSFTPSKSPAPVSKKEPVKTPSPAPAAKISSRVNDNNDDDDWNEPELKERDFDQAPLKPNQSSYKPIGKIDLQKVIAEEKAKEDPRLVQKPTAAGSKIDPSSDIANLKNESKLKRDSEFNSFLGTTKPPSMTESSLKNDDDKVIKGFRNEKSPAQLWAERKAKQNSGNAETKAEAPKPEVPEDEPEGEPDVKDLKSKFEGLAASEKEEEEMENKFAPPPKKSEPTIISPKPFSKPQEPVKAEEAEQPKTDYKKIGNPLPGMHIEADNEEEPEENDDDWDDDEDEAAQPPLPSRNVASGAPVQKEEPEQEEIAPSLPSRNSIPAPKQEEAPEQAPEEEIEEEAEEAAPQLPSRSSAAPPPPPRRATPEKKPKENPWATAEYDYDAAEDNELTFVENDKIINIEFVDDDMWLGELEKDGSKGLFPSNYVSLGN [chain 1 W569M] |
| -3.02 | chain 1 MALEPIDYTTHSREIDAEYLKIVRGSDPDTTWLIISPNAKKEYEPESTGSSFHDFLQLFDETKVQYGLARVSPPGSDVEKIIIIGWCPDSAPLKTRASFAANFAAVANNLFKGYHVQVTARDEDDLDENELLMKISNAAGARYSIQTSSKQQGKASTPPVKKSFTPSKSPAPVSKKEPVKTPSPAPAAKISSRVNDNNDDDDWNEPELKERDFDQAPLKPNQSSYKPIGKIDLQKVIAEEKAKEDPRLVQKPTAAGSKIDPSSDIANLKNESKLKRDSEFNSFLGTTKPPSMTESSLKNDDDKVIKGFRNEKSPAQLWAERKAKQNSGNAETKAEAPKPEVPEDEPEGEPDVKDLKSKFEGLAASEKEEEEMENKFAPPPKKSEPTIISPKPFSKPQEPVKAEEAEQPKTDYKKIGNPLPGMHIEADNEEEPEENDDDWDDDEDEAAQPPLPSRNVASGAPVQKEEPEQEEIAPSLPSRNSIPAPKQEEAPEQAPEEEIEEEAEEAAPQLPSRSSAAPPPPPRRATPEKKPKENPWATAEYDYDAAEDNELTFVENDKIINIEFVDDDKWLGELEKDGSKGLFPSNYVSLGN [chain 1 W569K] |
| -3.01 | chain 1 MALEPIDYTTHSREIDAEYLKIVRGSDPDTTWLIISPNAKKEYEPESTGSSFHDFLQLFDETKVQYGLARVSPPGSDVEKIIIIGWCPDSAPLKTRASFAANFAAVANNLFKGYHVQVTARDEDDLDENELLMKISNAAGARYSIQTSSKQQGKASTPPVKKSFTPSKSPAPVSKKEPVKTPSPAPAAKISSRVNDNNDDDDWNEPELKERDFDQAPLKPNQSSYKPIGKIDLQKVIAEEKAKEDPRLVQKPTAAGSKIDPSSDIANLKNESKLKRDSEFNSFLGTTKPPSMTESSLKNDDDKVIKGFRNEKSPAQLWAERKAKQNSGNAETKAEAPKPEVPEDEPEGEPDVKDLKSKFEGLAASEKEEEEMENKFAPPPKKSEPTIISPKPFSKPQEPVKAEEAEQPKTDYKKIGNPLPGMHIEADNEEEPEENDDDWDDDEDEAAQPPLPSRNVASGAPVQKEEPEQEEIAPSLPSRNSIPAPKQEEAPEQAPEEEIEEEAEEAAPQLPSRSSAAPPPPPRRATPEKKPKENPWATAERDYDAAEDNELTFVENDKIINIEFVDDDWWLGELEKDGSKGLFPSNYVSLGN [chain 1 Y541R] |
